Experimental data published in patent publication US20170100490A1, “Prodrug Comprising a Drug Linker Conjugate” (Ascendis Pharma A/S, priority 2008, published 2017).

Columns and labels:
physchem = settings: buffer A (phosphate buffer), pH 7.4
Description: In vitro linker hydrolysis and release of drug: Compounds were dissolved in buffer A (10 mM sodium phosphate, 140 mM NaCl, pH 7.4, 3 mM EDTA) or buffer B (0.1 M Acetat 3 mM EDTA, pH 4.0), and solution was filtered through a 0.2 μm filter and incubated at 37° C. Samples were taken at time intervals and analyzed by RP-HPLC at 215 nm and ESI-MS. UV-signals correlating to liberated drug molecule were integrated and plotted against incubation time. In case of identical retention times of prodrug and drug, ratio of mass signals was used to determine release kinetics.
For hydrogel conjugates, compounds were suspended in buffer A and incubated at 37° C. Samples were taken after centrifugation of the suspension and analyzed by RP-HPLC at 215 nm. UV-signals correlating to liberated drug molecule were integrated and plotted against incubation time.
Curve-fitting software was applied to estimate the corresponding halftime of release.

[1] = human, in vivo; cited from earlier work

Compound	half-life (physchem)	Plasma half-life [1]
CCCCCCCCCCCC(=O)NC(CCCCNC(=O)CCOCCOCCOCCOCCOCCOCCOCCOCCOCCOCCOCCOCCNC(=O)CCN1C(=O)CC(SCCNC(=O)CN2CCN(CCNC(=O)[C@@H]3CCCC[C@@H]3C(=O)N3CCN(C4=Nc5ccccc5Oc5ccc(Cl)cc54)CC3)CC2)C1=O)C(N)=O (some centres unmarked) [Compound 5]	22 h	
Exendin-4: GLP-1 receptor agonist peptide; high potency agonist at the glucagon-like peptide 1-(7-36)-amide receptor		0.433 h
